The test deals with patients with higher NaPi2b expression. In words: MER-XMT-1536-1 clinical trial (ongoing, preliminary data), XMT-1536 monotherapy. It is filed as in vivo, human. As to conditions: patients with higher NaPi2b expression (n=47); preliminary data from MER-XMT-1536-1.

B1: XMT-1536: NaPi2b-targeted polymer antibody-drug conjugate: about 8-12 AF-HPA molecules conjugated to cysteines of antibody XMT-1535 via a PHF scaffold (conjugate, chains of the INN, looked up)
VH: QVQLVQSGAEVVKPGASVKMSCKASGYTFTGYNIHWVKQAPGQGLEWIGAIYPGNGDTSYKQKFRGRATLTADTSTSTVYMELSSLRSEDSAVYYCARGETARATFAYWGQGTLVTVSS
VL: DIQMTQSPSSLSASVGDRVTITCSASQDIGNFLNWYQQKPGKTVKVLIYYTSSLYSGVPSRFSGSGSGTDYTLTISSLQPEDFATYYCQQYSKLPLTFGQGTKLELK
modifications: AF-HPA payload via PHF polymer scaffold
notes: NaPi2b-targeted polymer antibody-drug conjugate: about 8-12 AF-HPA molecules conjugated to cysteines of antibody XMT-1535 via a PHF scaffold
Take B1: the “DCR (disease control rate)” value was 74%, the “ORR (objective response rate)” value stood at 32% and the “median duration of response” value is on record as “approximately 5 months”.
